{"source": "the DeepSol protein solubility set", "data": [{"assay": "soluble on expression in E. coli; label from the status in PepcDB or PDB records", "values": [{"sequence": "MGSDKIHHHHHHSLDQAKKLYNDGKYAEAKPVFEKLVKQAPSNASYNQWYGVCCFETGDLAGAEKHLKVAVKRRVQDAYRYLGEVYYQTYRFNEAEEMFDEYITLLTKKKQDVEPYQIRMDLANKASRMLDKVENVQIIDSLVVDKDNFLSAYTLSEESGTLTTYQDFFQTNDPGNSSVYMNQKEDKIYYAHSTDGNHNCLFTQSKLIDQWGDEKQLPMNINSDADDGYPFVLSDGVTIYYASKGNSSLGGYDLFVTRYNINSDTYLTPEQLGMPYNSPFNDYMMVIDEAKQLGWFVSDRYQPEGKVCVYLFIPNDNRERVDSEDIELKRARASIASIKDSWKPGSNYEELIHLAHTEIPYGRIEIKKDFTFPIHNDIVYYTLDDIQSPEAKNYYEKVVSIHKQIKELNEKLESLRASYIKGNKAKREQLKPTILDTEEKLNNLLGQPDEWEKKARNAEIVYLRNNHK", "soluble on expression in E. coli": "not soluble"}, {"sequence": "MFENESLSFEEQTIIQAAERYVQQELANEASGHDWWHIYRVTQLAKTIAEKEQANLFLCILTALLHDIGDEKFNESEEAGLLKVQQWLEANNVSTEQTNHILSIIANMSFKGGNTGKTVTTLEGKVVQDADRLDAIGAIGIARVMAYSGNKGRLIHDPHKQPREQLTQEEYRNGEDTAIMHFYEKLLKLKEQMNTNYGRLLAEKRHQFMELYLEEFYQEWDGHRLEHHHHHH", "soluble on expression in E. coli": "soluble"}, {"sequence": "MEIPPTNYPASRAALVAQNYINYQQGTPHRVFEVQKVKQASMEDIPGRGHKYRLKFAVEEIIQKQVKVNCTAEVLYPSTGQETAPEVNFTFEGETGKNPDEEDNTFYQRLKSMKEPLEAQNIPDNFGNVSPEMTLVLHLAWVACGYIIWQNSTEDTWYKMVKIQTVKQVQRNDDFIELDYTILLHNIASQEIIPWQMQVLWHPQYGTKVKHNSRLPKEVQLE", "soluble on expression in E. coli": "soluble"}, {"sequence": "MAHHHHHHSLKCILLNQAEELPIEFLPKDGVYGKGKLFDSRNMEIENFTESDILQDARRAAEAHRRARYRVQSIVRPGITLLEIVRSIEDSTRTLLKGERNNGIGFPAGMSMNSCAAHYTVNPGEQDIVLKEDDVLKIDFGTHSDGRIMDSAFTVAFKENLEPLLVAAREGTETGIKSLGVDVRVCDIGRDINEVISSYEVEIGGRMWPIRPISDLHGHSISQFRIHGGISIPAVNNRDTTRIKGDSFYAVETFATTGKGSIDDRPPCSHFVLNTYKSRKLFNKDLIKVYEFVKDSLGTLPFSPRHLDYYGLVKGGSLKSVNLLTMMGLLTPYPPLNDIDGCKVAQFEHTVYLSEHGKEVLTRGDDY", "soluble on expression in E. coli": "not soluble"}, {"sequence": "MGSDKIHHHHHHMHVEDYMNETPACLLAMLTQTREDLWQAAKALTERGVTRIILTGSGTSYHGALTARSFMQQWCGLPVDVYWPFLLDDSALTLSDKALVIGISQGGGSLSTLAAMERARAAGHLTASMAGEAPAVIDRAADLVLTVPCGEERAGAKTKGYHCTILNLMLLGLAVASRQRRLSDEERKALLIRMDTTFNHLPTLIEASQAWVLNHARPLIDSADIRLTGPARLFGTVQEGALKMLETLRCPVAGYEFEEFIHGIYNAFDERSTLIMLDPFPDERQDRLAEILGGWTQHIYRIGPQVENNGKNMPFAFINDPDFAVFEYIIPLQMVCARLPPVKGIDPAIPKDPQFHQKMKSKQLN", "soluble on expression in E. coli": "not soluble"}, {"sequence": "MIVLETERLNLRWFDIKDAPFILELVNDPAWIQFIGDKGVRNLEDAKNYIVNGPIDMYNKLRFGLYLVERKEDLTPLGMCGLIKRDSLEDVDIGFAFLETFRSKGYGYESASAIIEYGVQKLGMKRIVAITSIDNIASGKLLEKVGLRFEKIISDSGEDLKLFGYNA", "soluble on expression in E. coli": "not soluble"}, {"sequence": "MSAPLFSVVVPAYNQHKFIDSCLTSLQRQTLTDFEVFVVDDCSTDDTGEQIAALIKGDDRFHVITHAHNRGVSAARNSGMAAAKGKYLCFVDGDDWVEPDFLATFLAAYRSAPDTQLVVCGHYGYLAVPSPAKTYNQKDLIANINFGTVGGFSWNKAFIRSIITTHHLKFNEDIDFLEDQLFAFRYANYVQSSEYVPDRTYHYRWRFRSNLAHIGIPFFTARRKMMKILKQENKQVLNEDWNNQ", "soluble on expression in E. coli": "not soluble"}, {"sequence": "MKVTKSEIVISAVKPEQYPEGGLPEIALAGRSNVGKSSFINSLINRKNLARTSSKPGKTQTLNFYIINDELHFVDVPGYGFAKVSKSEREAWGRMIETYITTREELKAVVQIVDLRHAPSNDDVQMYEFLKYYGIPVIVIATKADKIPKGKWDKHAKVVRQTLNIDPEDELILFSSETKKGKDEAWGAIKKMINR", "soluble on expression in E. coli": "soluble"}, {"sequence": "MGRVFMVDLEGNIYICKLCKTHLSTDQDIMSKSFQCKNGRAYLFNNVVNVSVGEKEDRMMITGLHNVVDIFCVGCGSNVGWKYEFAHEKSQKYKEGKSVLELYKISGPHDSNDLVSDGDDA", "soluble on expression in E. coli": "not soluble"}, {"sequence": "MSNTPIELKGSSFTLSVVHLHEAEPEVIRQALEDKIAQAPAFLKHAPVVINVSGLESPVNWPELHKIVTSTGLRIIGVSGCKDASLKVEIDRMGLPLLTEGKEKAVRPAPVEPATPSEPPQNANPITKTRLIDVPVRSGQRIYAPQCDLIVTSHVSAGAELIADGNIHVYGMMRGRALAGASGDREAQIFCTHLTAELVSIAGVYWLSDKIPAEFYGKAARLRLADNALTVQPLN", "soluble on expression in E. coli": "not soluble"}, {"sequence": "MDCCEERGVARHKGLSQVGTPGCPRWSQAVSCRCSAYREAAVTAVQMPLTPGYGETPLPHDELAALLPEVVEVLDKPITRADVYDLEQGLQDQVFDLLMPTAVEGSLSLDELLSDHFVRDLHARMFGPV", "soluble on expression in E. coli": "soluble"}, {"sequence": "MHIADMTMFYAPASGGVRTYLEAKHRHLWHYPGIRHSVLVPGASYRQANGIHEVPAPPLPFGNGYRFPLRRGPWRKVLRNLQPDLIEVGDPYLTAWAALDARRRLDVPVIGFYHSDLPLLVSNRMGAWLGTNADNYVSKLYGHFDRVLAPSRVMAEKLMRLGVADVHVQPLGVDLVTFHPSNRDPGLRQELGLDEETRLLVFAGRGSREKNLPVLLDAIQRLGDGYHLLLVGSNMPTRVPRNTSVVDHFCDSREVARLLASSDALLHAGDQETFGLVALEAMASGIPVVAVRAGALAEIVPERCGVLCAPNNGDAMACAVRELFSHDVELRGQRARRHVERQHAWDAVVAGLLLHYHAVLGDSEARFPRYGLEHHHHHH", "soluble on expression in E. coli": "not soluble"}, {"sequence": "MGHHHHHHSHMTAYSVGMGAEIQLCSHPIGLSKNQSRNPTKTLDSAKILACSLAQSKQPIRWEADPYNNIVYSIYYMELTLPTTPCRMLPQYQEKYGAVGRGTPYWIYYRKTLYLEIPLSERVGLKGGDTKMGIQDGTHQRDPPFYKPTPPPHIPPVLEKHTGWSYLCGYTWWTP", "soluble on expression in E. coli": "not soluble"}, {"sequence": "MYCKPHRPGNTPQVPDNKGKCTRLVDYLSKESQVERPYYDNFFSQQKDYVIPLTVKNHIDNNHRTLKSNDDKFYMLSINPSGDEQRHLIERVTGRKVGEFSELTPGEQESVLAQMKKFTRECMDEYARNFYREKIKSGDDLVWYGRVETERHYKNDDPEVKAGRVKAGDKKPGLQLHVHVIVSRMDRTQTVSLSPLSKSRGNRQILEGREVVVGFDRSQWSSRCASRFNQSYDYFPNYYSRDESLRKYSENWQAKNELKNEAVSKLKQEVLKGELKEERRLYANTFRIYRFVVNPRKAIIQELKRLGTDLLSGRDL", "soluble on expression in E. coli": "not soluble"}, {"sequence": "MFDKLKENEELWDLFTRKEEYSVTFRDAYERFPYYLSSHRNIFEPRVSKFLVENGLKPQYPDGKKFAVCLTHDIDAIYPDKLYPIVGPVKALSRGKLAEAVKAPFSRVNRKWNPCWNFREILALEAKYNAKSSFYFLALTSEETDFNYNIKDLETELGFISDSGWEVGLHGGHESYNSLEDIKEKKRRLEEVLGKKVVGYRNHYLRFRVPDTWELLSKAGFKYDTTFGYSDCAGFRNGMCHPYRPFNLNEGRQIDILEIPLVIMDRSLLKDYMRLNVKKAWECTKHLINTVEKYNGVITILWHNNMCIDGENLRYYEKVLEYCAEKNAWITSGEEIYNWWTSKIEPGNLEHHHHHH", "soluble on expression in E. coli": "not soluble"}, {"sequence": "AKIGLFFGSNTGKTRKVAKSIKKRFDDETMSDALNVNRVSAEDFAQYQFLILGTPTLGEGELPGLSSDAENESWEEFLPKIEGLDFSGKTVALFGLGDQVGYPENYLDALGELYSFFKDRGAKIVGSWSTDGYEFESSEAVVDGKFVGLALDLDNQSGKTDERVAAWLAQIAPEFGLSL", "soluble on expression in E. coli": "soluble"}, {"sequence": "MGSDKIHHHHHHANQKSEHDHVAKVPKSYLPSGSVMAKEASANLKLSEKLSLIDGQWDSTTDDAASYEMDEQDYQAVATCRKSIEKLYDEKLYPVNLSPDYSNWYTWEAAAKKASDNTFNTYTAYYWIIRFEKYDGTQNHTIWMLEDGTIIMAKAHMKDISDMSEYKEVLQADDESQAENDLSAYKGYFDYSGIDFSKLNLISETTAVEQKNNESYEVLQFLQENEYVYAIHEK", "soluble on expression in E. coli": "not soluble"}, {"sequence": "SLESYTVNRGKGVTRYDICQLPSNSPIEDDRAEEIVQVPILQDNNIKTSTDWMFFGVFDGHGGWTTSSKLRDQLIGYVINELGTIYKPVQGEENLRYVPNSATIDQAMKNGFLKLDHELVNKNIEKLLTDGNKAKAAELLMPALSGSCALLSFYDTNSQMLKVAVTGDSRAILGSFKDNHWTVRQLSIDQTGANPSEVARIISEHPNEPKVIRNGRVLGSLEPTRAFGDCRYKLPAVIQERIYKQFFGRPLPNQLKSPPYVTAEPIITTTKINPNEHDFLVMASDGLYEMLTNEEIVGLVVKWMEKADMIKPRKSWFGFGSADSKLPEVKDVTNDKALKKPLNNKLGNSFLLEDNNVSTHLIRNALSNGGSREQTSMLISIPNPVSRRYRDDLTVTVVFFGKDTKGEDENGTLEVNWNATAG", "soluble on expression in E. coli": "soluble"}, {"sequence": "MAVPVRHLVAVTACVSGVAHTYMAAERLEKLCQQEKWSIKIETQGALGTENRLTEEDIRRADVVLLITDIELAGVERFTRSRYVQSGISAFLREPQRVMSAVRKLLSAPQHTHLILE", "soluble on expression in E. coli": "not soluble"}, {"sequence": "MRPCIVIPIYNHKDVIGLTVARLVTHGLPIFIVDDGSDAPTQAVLAALAGQHAGCVTLLRLPVNGGKGAAVMAGLRAARSDGFTHALQIDADGQHDAADVPTFMDAARDHPEAVILGQPVYDATVPKARLYGRYLTHAWVWIETLSFDIRDSMCGFRVYPLALACALIDEVALPTRMDFDIEILVRLHWRRTRFVAIPTRVTYAADGVSHFDVLWDNIRISQSHARLVAGMLVRLPLLLANKARPRQRADQAAAGKAHWWRIAERGSQLGMRLLALSCRLLGTRITALWLYPIVAYFLLTGRAARQASRQYFERLAAASAQDRTPAPGWRSAYRHMIAFAQSGLDKLAAWSGHVSPHRVRFDDPAPFEALMASGRGALVIGAHLGNLEMTRALATRHGQVKVTAVVYIEHARRFNRVLAGAHPEFATHLLEVSDFGPATAMRMQERIDAGELLVIVGDRVPATEMGRTVEATFLGAPARFAQGPYILAHALGCPVYLFFCLKTRQDYTLYFEPFAERIELPRHARATHLATLAQRYASRLEHHCRKAPFQWFNFFDFWARPKKDAHGLEHHHHHH", "soluble on expression in E. coli": "not soluble"}, {"sequence": "MGHHHHHHSHVLLNEILEQVKDRTCLRALEKIKIQLEKGNKEFGDQAEAAQDATLTTTTFQNEDEKNKEVYMTPLRGVKATQASKSTQLKTNRGQRKVTVSARTNRRCQTAEADSESDHEVPEPESEMKMRLPRRAKTAALEKSKLNLAQFLNEDLS", "soluble on expression in E. coli": "not soluble"}, {"sequence": "MNTQKPFENHLKSVDDLKTTYEEYRAGFIAFALEKNKRSTPYIERARALKVAASVAKTPKDLLYLEDIQDALLYASGISDKAKKFLTEDDKKESINNLIENFLEPAGEEFIDELIFRYLLFQGDSLGGTMRNIAGALAQQKLTRAIISALDIANIPYKWLDSRDKKYTNWMDKPEDDYELETFAKGISWTINGKHRTLMYNITVSLVKKNVDICLFNCEPEIYTPQKVHQQPEKYLLLGELKGGIDPAGADEHWKTANTALTRIRNKFSEKGLSPKTIFIGAAIEHSMAEEIWDQLQSGSLTNSANLTKTEQVGSLCRWIINI", "soluble on expression in E. coli": "soluble"}]}]}
